Measured values: the Human Domainome abundance scans (Beltran et al. 2025)
± gives the uncertainty stated by the source.

B1: Homeobox protein SIX3, residues 212 to 262; numbered along this chain, O95343 (parent)
chain: CFKERTRSLLREWYLQDPYPNPSKKRELAQATGLTPTQVGNWFKNRRQRDR
B2: Zinc finger protein ZIC 2, residues 250 to 295; numbered along this chain, O95409 (parent)
chain: QCIKQELICKWIDPEQLSNPKKSCNKTFSTMHELVTHVSVEHVGGP

Variants of: B1
Test: abundance fitness (aPCA) (normalised: wild type 0, dead -1); higher = more abundant; growth selection in yeast, the domain comes from the species named
Settings: Homo sapiens

Variant	abundance fitness
CFKERTRSLLREWYLQDPYPNPSKKRELAQATGLTPTQVGNWFKNRRYRDR [Q48Y]	-0.055 ± 0.13
CFKERTRSLLREWYLQDPYPNPSKKRELAQATGLTPTQVGNWFKNRRQRHR [D50H]	-0.515 ± 0.14
CFKERTRSLLREWYLQDPYPNPSKKRELAQATGLTPTQVGNWFKNRRQRWR [D50W]	-1.17 ± 0.4
CFKERTRSLLREWYLQDPYPNPSKKRELAQATGLTPTQVGNWFKNRRQRMR [D50M]	-0.799 ± 0.25
CFKERTRSLLREWYLQDPYPNPSKKRELAQATGLTPTQVGNWFKNRRQRSR [D50S]	-0.491 ± 0.074
CFKERTRSLLREWYLQDPYPNPSKKRELAQATGLTPTQVGNWFKNRRQRLR [D50L]	-0.64 ± 0.057
CFKERTRSLLREWYLQDPYPNPSKKRELAQATGLTPTQVGNWFKNRRQRRR [D50R]	-1.08 ± 0.21
CFKERTRSLLREWYLQDPYPNPSKKRELAQATGLTPTQVGNWFKNRRQRGR [D50G]	-0.609 ± 0.047
CFKERTRSLLREWYLQDPYPNPSKKRELAQATGLTPTQVGNWFKNRRQRVR [D50V]	-0.699 ± 0.095
CFKERTRSLLREWYLQDPYPNPSKKRELAQATGLTPTQVGNWFKNRRQRAR [D50A]	-0.579 ± 0.11
CFKERTRSLLREWYLQDPYPNPSKKRELAQATGLTPTQVGNWFKNRRQRNR [D50N]	-0.747 ± 0.19
CFKERTRSLLREWYLQDPYPNPSKKRELAQATGLTPTQVGNWFKNRRQRIR [D50I]	-0.737 ± 0.11
CFKERTRSLLREWYLQDPYPNPSKKRELAQATGLTPTQVGNWFKNRRQRQR [D50Q]	-0.276 ± 0.065
CFKERTRSLLREWYLQDPYPNPSKKRELAQATGLTPTQVGNWFKNRRQRTR [D50T]	-0.582 ± 0.12
CFKERTRSLLREWYLQDPYPNPSKKRELAQATGLTPTQVGNWFKNRRQRER [D50E]	0.189 ± 0.1
CFKERTRSLLREWYLQDPYPNPSKKRELAQATGLTPTQVGNWFKNRRQRCR [D50C]	-0.678 ± 0.064
CFKERTRSLLREWYLQDPYPNPSKKRELAQATGLTPTQVGNWFKNRRQRYR [D50Y]	-0.6 ± 0.17
CFKERTRSLLREWYLQDPYPNPSKKRELAQATGLTPTQVGNWFKNRRQRDD [R51D]	0.246 ± 0.16
CFKERTRSLLREWYLQDPYPNPSKKRELAQATGLTPTQVGNWFKNRRQRDN [R51N]	-0.267 ± 0.26
CFKERTRSLLREWYLQDPYPNPSKKRELAQATGLTPTQVGNWFKNRRQRDA [R51A]	-0.031 ± 0.11
CFKERTRSLLREWYLQDPYPNPSKKRELAQATGLTPTQVGNWFKNRRQRDG [R51G]	-0.375 ± 0.076
CFKERTRSLLREWYLQDPYPNPSKKRELAQATGLTPTQVGNWFKNRRQRDV [R51V]	-0.441 ± 0.18

Variant	abundance fitness
CFKERTRSLLREWYLQDPYPNPSKKRELAQATGLTPTQVGNWFKNRRQRDW [R51W]	-0.309 ± 0.14
CFKERTRSLLREWYLQDPYPNPSKKRELAQATGLTPTQVGNWFKNRRQRDE [R51E]	-0.155 ± 0.21
CFKERTRSLLREWYLQDPYPNPSKKRELAQATGLTPTQVGNWFKNRRQRDF [R51F]	-0.18 ± 0.33
CFKERTRSLLREWYLQDPYPNPSKKRELAQATGLTPTQVGNWFKNRRQFDR [R49F]	-0.373 ± 0.16
CFKERTRSLLREWYLQDPYPNPSKKRELAQATGLTPTQVGNWFKNRRQNDR [R49N]	-0.221 ± 0.19
CFKERTRSLLREWYLQDPYPNPSKKRELAQATGLTPTQVGNWFKNRRQPDR [R49P]	-0.844 ± 0.23
CFKERTRSLLREWYLQDPYPNPSKKRELAQATGLTPTQVGNWFKNRRQEDR [R49E]	0 ± 0.042
CFKERTRSLLREWYLQDPYPNPSKKRELAQATGLTPTQVGNWFKNRRQCDR [R49C]	-0.539 ± 0.1
CFKERTRSLLREWYLQDPYPNPSKKRELAQATGLTPTQVGNWFKNRRQWDR [R49W]	-0.462 ± 0.07
CFKERTRSLLREWYLQDPYPNPSKKRELAQATGLTPTQVGNWFKNRRQSDR [R49S]	-0.279 ± 0.083
CFKERTRSLLREWYLQDPYPNPSKKRELAQATGLTPTQVGNWFKNRRQYDR [R49Y]	-0.074 ± 0.12
CFKERTRSLLREWYLQDPYPNPSKKRELAQATGLTPTQVGNWFKNRRQIDR [R49I]	-0.216 ± 0.14
CFKERTRSLLREWYLQDPYPNPSKKRELAQATGLTPTQVGNWFKNRRQLDR [R49L]	-0.388 ± 0.057
CFKERTRSLLREWYLQDPYPNPSKKRELAQATGLTPTQVGNWFKNRRQTDR [R49T]	-0.18 ± 0.082
CFKERTRSLLREWYLQDPYPNPSKKRELAQATGLTPTQVGNWFKNRRQVDR [R49V]	-0.153 ± 0.082
CFKERTRSLLREWYLQDPYPNPSKKRELAQATGLTPTQVGNWFKNRRQDDR [R49D]	-0.033 ± 0.11
CFKERTRSLLREWYLQDPYPNPSKKRELAQATGLTPTQVGNWFKNRRQADR [R49A]	-0.222 ± 0.079
CFKERTRSLLREWYLQDPYPNPSKKRELAQATGLTPTQVGNWFKNRRQKDR [R49K]	0.025 ± 0.073
CFKERTRSLLREWYLQDPYPNPSKKRELAQATGLTPTQVGNWFKNRRQHDR [R49H]	-0.371 ± 0.22
CFKERTRSLLREWYLQDPYPNPSKKRELAQATGLTPTQVGNWFKNRRQMDR [R49M]	-0.247 ± 0.058
CFKERTRSLLREWYLQDPYPNPSKKRELAQATGLTPTQVGNWFKNRRQQDR [R49Q]	0.018 ± 0.089
CFKERTRSLLREWYLQDPYPNPSKKRELAQATGLTPTQVGNWFKNRRQGDR [R49G]	-0.373 ± 0.051

Variants of: B2
Test: as above
Settings: Homo sapiens

Variant	abundance fitness
QCIKQELYCKWIDPEQLSNPKKSCNKTFSTMHELVTHVSVEHVGGP [I8Y]	-0.245 ± 0.13
QCIKQELVCKWIDPEQLSNPKKSCNKTFSTMHELVTHVSVEHVGGP [I8V]	0.086 ± 0.087
QCIKQELICKWIDPRQLSNPKKSCNKTFSTMHELVTHVSVEHVGGP [E15R]	-0.217 ± 0.085
QCIKQELICKWIDPFQLSNPKKSCNKTFSTMHELVTHVSVEHVGGP [E15F]	-0.23 ± 0.11
QCIKQELICKWIDPCQLSNPKKSCNKTFSTMHELVTHVSVEHVGGP [E15C]	-0.132 ± 0.11
QCIKQELICKWIDPEQLSNPKKSCNKTFSTMHELVTHPSVEHVGGP [V38P]	-0.417 ± 0.12
QCIKQELICKWIDPEQLSNPKKSCNKTFSTGHELVTHVSVEHVGGP [M31G]	0.079 ± 0.083
QCIKQELICKWIDPEQLSNPGKSCNKTFSTMHELVTHVSVEHVGGP [K21G]	-0.12 ± 0.086
QCIKQILICKWIDPEQLSNPKKSCNKTFSTMHELVTHVSVEHVGGP [E6I]	-1.62 ± 0.49
QCIKQELICKWIDPEQLSNPKKECNKTFSTMHELVTHVSVEHVGGP [S23E]	0.002 ± 0.1
